“And” between values parts separate entries of the source, which are not always exact repeats. Identical values can stand only once.

The series deals with the molecule itself. Put plainly: crystal structure.

B1: N-terminal lipid-binding domain of Mycobacterium tuberculosis Wag31 (residues 2-60) (domain or fragment)
chain: PLTPADVHNVAFSKPPIGKRGYNEDEVDAFLDLVENELTRLIEENSDLRQRINELDQEL
notes: Assembly states reported: parallel coiled-coil dimer (asymmetric unit), tetramer ('dimer-of-dimers'); also called N-Wag31; N-terminal Wag31
One may read the stoichiometry N as a count of units in the complex or per binding partner. Consider B1, for which the “stoichiometry N” value is 2 and 4.

Values taken from paper PMC7340271 (IUCrJ, 2020).
